Laboratory results published in patent US10689421B2, “Bacteriocin-producing Paenibacillus ehimensis and application thereof” (National Pingtung University of Science and Technology, priority 2018, dated 2020).

Columns and labels:
Assay in all cases: Inhibitory zone of Peocin on solid medium containing pathogen
Format in all cases: cell-based
Details in all cases: solid medium containing strain 10^6 CFU/ml
[1] = tested on: Aeromonas hydrophila
Text: (§1) Following pathogens were subjected in the test. Six aquaculture pathogen: Aeromonas hydrophila, Vibrio vulnificus, Vibrio alginolyticus, Vibrio parahaemolyticus, Streptococcus agalactiae and Debaryomyces hansenii. Five foodborne pathogen which cause food rot and food poisoning: Staphylococcus aureus, Methicillin-resistant Staphylococcus aureus (MRSA), Escherichia coli, Salmonella typhimurium and Listeria monocytogenes. Two clinical infectious pathogens: Pseudomonas aeruginosa and Burkholderia gladioli causing leaf spot disease. Culture these strains separately and create solid medium containing these strains (10^6 CFU/ml). Add antibacterial protein after solid medium solidifies, then measure the antibacterial activity and inhibitory zone diameter.

[2] = tested on: Burkholderia gladioli
Text: as §1

[3] = tested on: Debaryomyces hansenii
Text: as §1

[4] = tested on: Escherichia coli
Text: as §1

[5] = tested on: Listeria monocytogenes
Text: as §1

[6] = tested on: Methicillin-resistant Staphylococcus aureus (MRSA)
Text: as §1

[7] = tested on: Pseudomonas aeruginosa
Text: as §1

[8] = tested on: Salmonella typhimurium
Text: as §1

[9] = tested on: Staphylococcus aureus
Text: as §1

[10] = tested on: Streptococcus agalactiae
Text: as §1

[11] = tested on: Vibrio alginolyticus
Text: as §1

[12] = tested on: Vibrio parahaemolyticus
Text: as §1

[13] = tested on: Vibrio vulnificus
Text: as §1

B1: Peocin: bacteriocin; DNA starvation/stationary phase protection protein produced by Paenibacillus ehimensis NPUST-1, amino acid SEQ ID NO: 1 (protein, listed as Paenibacillus ehimensis)
chain: MNEQLTVLLNNQIANWSVLYVKLHNYHWYVKGPQFFTLHTKFEELYTEAALHVDALAERLLALGGKPVATMSGSLRLASVREAEGEESAERMVAALVNDFTLIIGELKSGMKYAESVQDETTGDLLLAIHSSLEKHVWMLNAFLGN
- Diameter of inhibitory zone [1]: 1.3 ± 0.00 cm
- Diameter of inhibitory zone [2]: 1.5 ± 0.05 cm
- Diameter of inhibitory zone [3]: 1.3 ± 0.00 cm
- Diameter of inhibitory zone [4]: 1.4 ± 0.00 cm
- Diameter of inhibitory zone [5]: 1.0 ± 0.05 cm
- Diameter of inhibitory zone [6]: 1.1 ± 0.05 cm
- Diameter of inhibitory zone [7]: 1.2 ± 0.00 cm
- Diameter of inhibitory zone [8]: 1.1 ± 0.05 cm
- Diameter of inhibitory zone [9]: 1.1 ± 0.05 cm
- Diameter of inhibitory zone [10]: 1.4 ± 0.00 cm
- Diameter of inhibitory zone [11]: 1.1 ± 0.03 cm
- Diameter of inhibitory zone [12]: 1.2 ± 0.03 cm
- Diameter of inhibitory zone [13]: 1.3 ± 0.00 cm
